One molecule from US5677146, “Human amyloid protein precursor homolog and kunitz-type inhibitor” (Zymogenetics, Inc., dated 1997) can be followed below.

The target in assay [1] is bovine trypsin (bovine, UniProt P00760). As to the kind of experiment: affinity chromatography of yeast supernatant on bovine trypsin coupled to CNBr-activated Sepharose.
For assay [2], the target named is recombinant human activated protein C (5 nM), Novo Nordisk A/S (human, UniProt P04070). As to the kind of experiment: cell-based or functional assay.
The target of assay [3] is recombinant human Factor VIIa (300 nM), Novo Nordisk A/S (human, UniProt P08709). Kind of assay: cell-based or functional assay.
In assay [4] the target is human Factor XIa (1 nM) (human, UniProt P03951). As to the kind of experiment: cell-based or functional assay.
Assay [5] has as its target human Factor Xa (3 nM) (human, UniProt P00742). As to the kind of experiment: cell-based or functional assay.
Assay [6] deals with T1, human Factor XIIa (30 nM) (human, UniProt P00748).
T1 sequence 1: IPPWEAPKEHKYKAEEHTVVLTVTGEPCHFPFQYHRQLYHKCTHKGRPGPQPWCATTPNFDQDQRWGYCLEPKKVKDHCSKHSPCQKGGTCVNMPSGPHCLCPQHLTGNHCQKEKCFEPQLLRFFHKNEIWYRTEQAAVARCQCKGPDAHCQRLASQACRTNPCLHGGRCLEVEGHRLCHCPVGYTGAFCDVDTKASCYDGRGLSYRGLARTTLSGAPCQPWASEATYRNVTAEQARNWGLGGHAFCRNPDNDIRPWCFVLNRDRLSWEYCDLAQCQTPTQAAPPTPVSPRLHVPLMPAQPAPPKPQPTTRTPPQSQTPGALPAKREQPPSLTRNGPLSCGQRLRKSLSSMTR
T1 sequence 2: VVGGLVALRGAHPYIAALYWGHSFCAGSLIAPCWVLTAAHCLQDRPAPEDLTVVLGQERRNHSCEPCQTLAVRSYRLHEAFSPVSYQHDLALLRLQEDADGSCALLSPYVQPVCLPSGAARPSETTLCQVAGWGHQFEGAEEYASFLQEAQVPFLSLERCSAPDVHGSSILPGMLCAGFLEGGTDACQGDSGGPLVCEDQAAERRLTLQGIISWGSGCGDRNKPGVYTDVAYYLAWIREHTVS
As to the kind of experiment: cell-based or functional assay.

B1: Kunitz-type inhibitor domain of the amyloid protein precursor (other)
chain: EVCSEQAETGPCRAMISRWYFDVTEGKCAPFFYGGCGGNRNNFDTEEYCMAVCGSA
One may read the % Inhibition as the share of the control response that was lost under treatment. As to B1, in assay [1], the binding result is recorded as “binds”. Also, the “% Inhibition” value worked out at 1% in assay [2]; 7% in assay [3]; 100% in assay [4]; 29% in assay [5]; 8% in assay [6].
